Where a chain is given by its changes, count along the chain named. Names may count otherwise. “Also recorded” adds a separate entry of the source.
B1: D261N (protein)
chain: MKVSALKEKVSALKEKVSALKEKVSALKEKVSALKEGSGGGSGGGSGGGSNSIALKNNTLWTGPKPEANCIIEYGKQNPDSKLTLILVKNGGIVNGYVTLMGASDYVNTLFKNKNVSINVELYFDATGHILPDSSSLKTDLELKYKQTADFSARGFMPSTTAYPFVLPNAGTHNENYIFGQCYYKASNGALFPLEVTVMLNKRLPDSRTSYVMTFLWSLNAGLAPETTQATLITSPFTFSYIREDD
B2: JO-4 (protein)
chain: B1 chain with Y177F, N188D
B3: JO-1: recombinant protein with the Ad3 fiber knob and a domain for self-dimerization of trimeric knobs (SEQ ID NO:27) (protein)
chain: B1 chain with N188D

Key:
[1] = test system: polarized colon cancer T84 cells; assay: Transepithelial electrical resistance (TEER) permeability assay; format: cell-based; details: for Effect on TEER: 5 μg dimeric Ad3 fiber knob added 1 hour to apical chamber
Description: FIG. 5. Correlation of reduced DSG2 binding with the ability to open epithelial junctions. A) Transepithelial electrical resistance (TEER) measured on polarized colon cancer T84 cells. Cells were cultured in transwell chambers until the TEER was constant, i.e. tight junctions had formed. A total of 5 μg of dimeric Ad3 fiber knobs in PBS was then added for 1 hour to the apical chamber. TEER was measured at the indicated time points. N=6. For time points 1.5 and 4 hours the difference between JO-1 vs D261N and N186D was significant (p<0.01). The arrows indicate the addition and removal of Ad3 fiber knobs. B) Enhancement of irinotecan therapy. A total of 4×10^6 A549 cells were injected subcutaneously into CB17-SCID/beige mice. Once the tumor reached a volume of ˜100 mm^3 (day 15 after implantation), the mice were injected intravenously with 2 mg/kg JO-1, E299V, N186D, or PBS, followed by an intravenous injection of irinotecan (37.5 mg/kg) one hour later. The treatment was repeated on day 25. N=5. […] The difference between “irinotecan” vs “JO-1+irinotecan” was significant (p<0.01) from day 20 on.
FIG. 9. Analysis of dimeric Ad3 fiber knob mutants with increased affinity to DSG2. A) Competition of Ad3-GFP virus infection on HeLa cells with dimeric affinity-enhanced mutant Y250F and JO-1 (dimeric wt Ad3 fiber knob). The experimental setting is as described for FIG. 3C. left panel: percentage of GFP positive cells. Right panel: mean fluorescence intensity. N=3. The standard deviation was less than 10%. B) Competition of Ad3-GFP virus infection on HeLa cells by Ad3 knob mutants with enhanced DSG2 binding but without dimerization domain. 1.5×10^5 HeLa cells were seeded into 24 well plates. Cells were incubated with the Ad3 knob mutants at the increasing concentrations for one hour at room temperature. 100 pfu/cell of Ad3GFP virus were then added and GFP expression was analyzed 18 hours later. C) TEER on colon cancer T84 cells. The experimental setting was the same as for FIG. 5A. The TEER at 4 hours is shown. N=3.
A total of 5×10^5 T84 cells were seeded in 12 mm transwell inserts (PET membrane, with 0.4 μm pore size (Corning, N.Y.) and cultured for >14 days until transepithelial electrical resistance (TEER) was stable. Culture medium was changed every 2-3 days. The cells were exposed to DSG2 ligands (20 μg/ml) in adhesion medium (DMEM, 1% FBS, 2 mM MgCl2, 20 mM HEPES) for 15 min at room temperature and TEER was measured and calculated as described elsewhere (39).

[2] = Serum clearance of JO-1 and JO-4 by ELISA; format: in vivo, hDSG2 transgenic mice; details: 2 mg/kg i.v.; for Decline of serum concentration within an hour after injection: TC1-hDSG2 tumors ~600 mm^3, N=3; for Serum concentration plateau: after one hour post-injection
Description: FIG. 11. Pharmacokinetics, toxicity, and immunogenicity of JO-4. A) Serum clearance of JO-1 and JO-4. hDSG2 transgenic mice with subcutaneous TC1-hDSG2 tumors (˜600 mm^3) were intravenously injected with JO-1 or JO-4 (2 mg/kg) and serum samples were analyzed for by ELISA. N=3. Note that the y-axis has a log scale. B) Lymphocyte and platelet counts in hDSG2/TC1-hDSG2 transgenic mice after JO-1 or JO-4 injection. N=3. C) Therapy studies in immunocompetent hDSG2 transgenic mice with TC1-hDSG2 tumors. When tumors reached a volume of ˜80 mm^3, JO-1 or JO-4 (2 mg/kg) or PBS was injected intravenously followed one hour later by PLD/Doxil (i.v. 1.5 mg/kg). Treatment was repeated as indicated by arrows. Tumors were then allowed to re-grow for about two weeks. From day 15 on serum anti-JO-1/J)-4 antibodies were detectable by ELISA. Two more treatment cycles were performed at day 28 and day 35. […] The difference between JO-1/PLD vs JO-4/PLD is significant from day 31 on. N=10.
Two of the affinity enhanced version of JO-1, Y293D and V250F were analyzed in in vivo assay. We called these mutants JO-2 and JO-4, respectively. The first study was performed in a xenograft model derived from A549 cells similar to the study described for FIG. 5B. […] Additional studies were performed in xenograft tumors derived from ovc316 cells (30, 32). Ovc316 cells are Her2/neu positive epithelial tumor cells derived from an ovarian cancer biopsy. These cells can undergo EMT and the reverse process, mesenchymal-to-epithelial-transition (MET), under specific conditions in vitro and in vivo. A subfraction of ovc316 cells that is positive for Nanog, CD133, and E-cadherin is enriched for cancer stem cells, i.e. self-renewing cells with pluripotent potential and tumor forming ability (30). Ovc316 cells therefore closely model the heterogeneity and plasticity seen in tumors in situ. […] Finally, we tested JO-4 in a model for triple-negative breast cancer (TNBC). TNBC is characterized by a lack or minimal expression of estrogen receptor (ER), progesterone receptor (PR) and the absence of Her2/neu overexpression. TNBC accounts for 15% of all breast cancers. Overall survival is poor compared with that in patients who have other phenotypes. A characteristic feature of TNBC is high levels of DSG2 and epithelial junctions. Promising clinical results in the treatment of TNBS have been achieved with nanoparticle, albumin-conjugated paclitaxel (nab-paclitaxel/Abraxane™) alone or in combination with the EGFR-targeting mAb cetuximab/Erbitux™ (38). […] Because of its therapeutic relevance, we further studied JO-4 in an adequate mouse tumor model. […] These mice were subcutaneously implanted with syngeneic TC1-hDSG tumors. […] We also analyzed hematological parameters after i.v. JO-1 and JO-4 injection.

Molecule | Effect on TEER [1] | TEER compared to JO-1 ([1]; dimeric affinity-enhanced mutants, TEER at 4 hours, N=3) | Decline of serum concentration within an hour after injection [2] | Serum concentration plateau [2]
B1 | no effect on the TEER |  |  | 
B2 |  | significantly higher | declined more than one order of magnitude; also recorded: significantly greater | ~100 ng/mL
B3 | rapid decrease in the TEER |  | declined more than one order of magnitude | ~100 ng/mL

— US20150246949A1, “Desmoglein 2 (DSG2) Binding Proteins and Uses Therefor” (UNIVERSITY OF WASHINGTON THROUGH ITS CENTER FOR …, priority 2012, published 2015)
